# Test results from article PMC4120998 (Journal of the American Chemical Society, 2014).
# Target: CXCR4 on human Jurkat cells (Homo sapiens (endogenous, Jurkat cells), UniProt P61073)
# Test: flow cytometry on cells
# Sequence of CXCR4 on human Jurkat cells (P61073 whole entry): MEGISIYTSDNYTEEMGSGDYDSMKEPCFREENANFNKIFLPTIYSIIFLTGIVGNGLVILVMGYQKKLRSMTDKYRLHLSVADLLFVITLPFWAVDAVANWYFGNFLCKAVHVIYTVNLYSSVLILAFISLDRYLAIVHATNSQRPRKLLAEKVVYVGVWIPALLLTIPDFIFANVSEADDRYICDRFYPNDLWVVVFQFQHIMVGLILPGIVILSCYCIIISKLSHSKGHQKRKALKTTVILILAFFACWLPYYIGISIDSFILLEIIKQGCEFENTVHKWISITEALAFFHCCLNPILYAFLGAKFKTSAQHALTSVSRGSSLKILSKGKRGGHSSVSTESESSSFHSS
binder,measurement,value
bovine antibody BLV1H12 (antibody) VH: QVQLRESGPSLVKPSQTLSLTCTASGFSLSDKAVGWVRQAPGKALEWLGSIDTGGNTGYNPGLKSRLSITKDNSKSQVSLSVSSVTTEDSATYYCTSVHQETKKYQSCPDGYRERSDCSNRPACGTSDCCRVSVFGNCLTTLPVSYSYTYNYEWHVDVWGQGLLVTVSS VL: QAVLNQPSSVSGSLGQRVSITCSGSSSNVGNGYVSWYQLIPGSAPRTLIYGDTSRASGVPDRFSGSRSGNTATLTISSLQAEDEADYFCASAEDSSSNAVFGSGTTLTVL,binding result,no binding (tested: 1 μg/mL)
